B1: 21988 (protein)
chain: MALPVTALLLPLALLLHAARPEVQLLESGGGLVQPGGSLRLSCAASGFTFSSYAMSWVRQAPGKGLEWVSSISGSGDYIYYADSVKGRFTISRDISKNTLYLQMNSLRAEDTAVYYCAKEGTGANSSLADYRGQGTLVTVSSLEDLKNVFPPEVAVFEPSEAEISHTQKATLVCLATGFYPDHVELSWWVNGKEVHSGVCTDPQPLKEQPALNDSRYCLSSRLRVSATFWQNPRNHFRCQVQFYGLSENDEWTQDRAKPVTQIVSAEAWGRADCGFTSESYQQGVLSATILYEILLGKATLYAVLVSALVLMAMVKRKDSRGRAKRSGSGATNFSLLKQAGDVEENPGPTSMDWIWRILFLVGAATGAHSFEVQLLESGGGLIQPGGSLRLSCAASGFTFSSHAMTWVRQAPGKGLEWVSAISGSGDYTHYADSVKGRFTISRDNSKNTVYLQMNSLRAEDSAVYYCAKDEDGGSLLGHRGQGTLVTVSSTRIQNPDPAVYQLRDSKSSDKSVCLFTDFDSQTNVSQSKDSDVYITDKCVLDMRSMDFKSNSAVAWSNKSDFACANAFNNSIIPEDTFFPSPESSCDVKLVEKSFETDTNLNFQNLSVIGFRILLLKVAGFNLLMTLRLWSSRAKRSGSGVKQTLNFDLLKLAGDVESNPGPSRGHMTEYKPTVRLATRDDVPRAVRTLAAAFADYPATRHTVDPDRHIERVTELQELFLTRVGLDIGKVWVADDGAAVAVWTTPESVEAGAVFAEIGPRMAELSGSRLAAQQQMEGLLAPHRPKEPAWFLATVGVSPDHQGKGLGSAVVLPGVEAAERAGVPAFLETSAPRNLPFYERLGFTVTADVEVPEGPRTWCMTRKPGA
B2: 22061 (protein)
chain: MALPVTALLLPLALLLHAARPQVQLVESGGGLVQPGGSLRLSCAASGFTFTNHAMSWVRQAPGKGLELVSSISGNGRTTYYADSVKGRFTISRDISKNTLDLQMNSLRAEDTAVYYCAKDGGETLVDSRGQGTLVTVSSLEGSGGGGSGGGGSGEDLKNVFPPEVAVFEPSEAEISHTQKATLVCLATGFYPDHVELSWWVNGKEVHSGVCTDPQPLKEQPALNDSRYCLSSRLRVSATFWQNPRNHFRCQVQFYGLSENDEWTQDRAKPVTQIVSAEAWGRADCGFTSESYQQGVLSATILYEILLGKATLYAVLVSALVLMAMVKRKDSRGRAKRSGSGATNFSLLKQAGDVEENPGPTSMDWIWRILFLVGAATGAHSFEEVQLLESGGGLVQPGGSLRLSCAASGFTFSSYAMSWVRQAPGKGLEWVSSISGSGDYIYYADSVKGRFTISRDISKNTLYLQMNSLRAEDTAVYYCAKEGTGANSSLADYRGQGTLVTVSSTRIQNPDPAVYQLRDSKSSDKSVCLFTDFDSQTNVSQSKDSDVYITDKCVLDMRSMDFKSNSAVAWSNKSDFACANAFNNSIIPEDTFFPSPESSCDVKLVEKSFETDTNLNFQNLSVIGFRILLLKVAGFNLLMTLRLWSSRAKRSGSGVKQTLNFDLLKLAGDVESNPGPSRGHMTEYKPTVRLATRDDVPRAVRTLAAAFADYPATRHTVDPDRHIERVTELQELFLTRVGLDIGKVWVADDGAAVAVWTTPESVEAGAVFAEIGPRMAELSGSRLAAQQQMEGLLAPHRPKEPAWFLATVGVSPDHQGKGLGSAVVLPGVEAAERAGVPAFLETSAPRNLPFYERLGFTVTADVEVPEGPRTWCMTRKPGA
B3: 22014 (protein)
chain: MALPVTALLLPLALLLHAARPQVQLVESGGGLVQPGGSLRLSCAASGFTFTNHAMSWVRQAPGKGLELVSSISGNGRTTYYADSVKGRFTISRDISKNTLDLQMNSLRAEDTAVYYCAKDGGETLVDSRGQGTLVTVSSLEDLKNVFPPEVAVFEPSEAEISHTQKATLVCLATGFYPDHVELSWWVNGKEVHSGVCTDPQPLKEQPALNDSRYCLSSRLRVSATFWQNPRNHFRCQVQFYGLSENDEWTQDRAKPVTQIVSAEAWGRADCGFTSESYQQGVLSATILYEILLGKATLYAVLVSALVLMAMVKRKDSRGRAKRSGSGATNFSLLKQAGDVEENPGPTSMDWIWRILFLVGAATGAHSFEVQLLESGGGLVQPGGSLRLSCAASGFIFSIYAMSWVRQAPGKGLEWVSGISGSGVNTYYADSVKGRFIISRDNSRNTVYLQMNSLRADDTAVYHCANGKGWDGNTWYEDYRGQGTLVTVSSTRIQNPDPAVYQLRDSKSSDKSVCLFTDFDSQTNVSQSKDSDVYITDKCVLDMRSMDFKSNSAVAWSNKSDFACANAFNNSIIPEDTFFPSPESSCDVKLVEKSFETDTNLNFQNLSVIGFRILLLKVAGFNLLMTLRLWSSRAKRSGSGVKQTLNFDLLKLAGDVESNPGPSRGHMTEYKPTVRLATRDDVPRAVRTLAAAFADYPATRHTVDPDRHIERVTELQELFLTRVGLDIGKVWVADDGAAVAVWTTPESVEAGAVFAEIGPRMAELSGSRLAAQQQMEGLLAPHRPKEPAWFLATVGVSPDHQGKGLGSAVVLPGVEAAERAGVPAFLETSAPRNLPFYERLGFTVTADVEVPEGPRTWCMTRKPGA
B4: 22016 (protein)
chain: MDWIWRILFLVGAATGAHSQLQLQESGPGLVKPSETLSLTCTVSGGSVSSSSYYWGWIRQPPGKRLELIGSIYYGGSTYFNPSLKTRVTISVDTSKNQFSLKLSSVTAADTAVYYCAGGDTYGPVGQWPSDYRGQGTLVTVSSLEDLKNVFPPEVAVFEPSEAEISHTQKATLVCLATGFYPDHVELSWWVNGKEVHSGVCTDPQPLKEQPALNDSRYCLSSRLRVSATFWQNPRNHFRCQVQFYGLSENDEWTQDRAKPVTQIVSAEAWGRADCGFTSESYQQGVLSATILYEILLGKATLYAVLVSALVLMAMVKRKDSRGRAKRSGSGATNFSLLKQAGDVEENPGPTSMDWIWRILFLVGAATGAHSFEQVQLVESGGGLVQPGGSLRLSCAASGFTFTNHAMSWVRQAPGKGLELVSSISGNGRTTYYADSVKGRFTISRDISKNTLDLQMNSLRAEDTAVYYCAKDGGETLVDSRGQGTLVTVSSTRIQNPDPAVYQLRDSKSSDKSVCLFTDFDSQTNVSQSKDSDVYITDKCVLDMRSMDFKSNSAVAWSNKSDFACANAFNNSIIPEDTFFPSPESSCDVKLVEKSFETDTNLNFQNLSVIGFRILLLKVAGFNLLMTLRLWSSRAKRSGSGVKQTLNFDLLKLAGDVESNPGPSRGHMTEYKPTVRLATRDDVPRAVRTLAAAFADYPATRHTVDPDRHIERVTELQELFLTRVGLDIGKVWVADDGAAVAVWTTPESVEAGAVFAEIGPRMAELSGSRLAAQQQMEGLLAPHRPKEPAWFLATVGVSPDHQGKGLGSAVVLPGVEAAERAGVPAFLETSAPRNLPFYERLGFTVTADVEVPEGPRTWCMTRKPGA
B5: 21989 (protein)
chain: MALPVTALLLPLALLLHAARPQVQLVESGGGLVQPGGSLRLSCAASGFTFTNHAMSWVRQAPGKGLELVSSISGNGRTTYYADSVKGRFTISRDISKNTLDLQMNSLRAEDTAVYYCAKDGGETLVDSRGQGTLVTVSSLEDLKNVFPPEVAVFEPSEAEISHTQKATLVCLATGFYPDHVELSWWVNGKEVHSGVCTDPQPLKEQPALNDSRYCLSSRLRVSATFWQNPRNHFRCQVQFYGLSENDEWTQDRAKPVTQIVSAEAWGRADCGFTSESYQQGVLSATILYEILLGKATLYAVLVSALVLMAMVKRKDSRGRAKRSGSGATNFSLLKQAGDVEENPGPTSMDWIWRILFLVGAATGAHSFEEVQLLESGGGLVQPGGSLRLSCAASGFTFSSYAMSWVRQAPGKGLEWVSSISGSGDYIYYADSVKGRFTISRDISKNTLYLQMNSLRAEDTAVYYCAKEGTGANSSLADYRGQGTLVTVSSTRIQNPDPAVYQLRDSKSSDKSVCLFTDFDSQTNVSQSKDSDVYITDKCVLDMRSMDFKSNSAVAWSNKSDFACANAFNNSIIPEDTFFPSPESSCDVKLVEKSFETDTNLNFQNLSVIGFRILLLKVAGFNLLMTLRLWSSRAKRSGSGVKQTLNFDLLKLAGDVESNPGPSRGHMTEYKPTVRLATRDDVPRAVRTLAAAFADYPATRHTVDPDRHIERVTELQELFLTRVGLDIGKVWVADDGAAVAVWTTPESVEAGAVFAEIGPRMAELSGSRLAAQQQMEGLLAPHRPKEPAWFLATVGVSPDHQGKGLGSAVVLPGVEAAERAGVPAFLETSAPRNLPFYERLGFTVTADVEVPEGPRTWCMTRKPGA

system: L363 cells; test: JNG assay, co-culture with L363 cells; format: cell-based; conditions: co-culture with L363
Method: Cellular supernatant is collected and assayed for the induction of cytokines (e.g., IL2).
JNG (Jurkat cells expressing EGFP under an NFAT promoter) were infected with lentiviral vectors encoding different single chain and multi-chain SARs by spinfection in the presence of 8 µg/ml of Polybrene® (Sigma, Catalog no. H9268). The Jurkat-NFAT-GFP cells are engineered in such a way that the IL-2 promoter, which carries NFAT binding sites, is cloned upstream of the GFP gene. These cells have been used to study signaling via TCR and CAR. The different SARs were stably expressed in Jurkat NFAT-GFP cells by lentiviral mediated gene transfer, followed by selection with puromycin or blasticidin. No drug selection was used in case the construct lacked an antibiotic resistance gene. The SAR-expressing Jurkat-NFAT-GFP cells were cocultured with the target cells at E:T ratio of approximately 1:2 for approximately 4 hours to 18 hours. When the interaction between SIRs and their target antigen results in activation of the NFAT pathway, GFP expression is induced. […] GFP expression was monitored by FACS analysis. The Jurkat-NFAT-GFP (parental) cells were used as control. The structure of different constructs can be determined based on their names. […] The sequence of the other constructs in the table can be similarly determined from their names and by referring to the different Tables of this disclosure that provide the names and SEQ ID NO of the different modules. Alternatively, the composition and modular architecture of the different SAR constructs can be determined from their sequences by bioinformatics tools, including using nucleic acid and amino acids homology searches. A SAR is considered positive in the assay in case the SAR expressing Jurkat-NFAT-GFP cells show greater % GFP positive cells when cultured with the target cell line as compared to parental Jurkat-NFAT-GFP cells. […] In general, the number +/-, +, 2+, 3+, 4+, 5+ refer to approximately 5%, 10%, 20%, 30%, 40% and 50% GFP positive cells. The % of GFP induction in the above assay is dependent not only the relative strength of the SAR but also, among other factors, on the relative level of expression of the SAR in the JNG cells and the relative level of expression of the target antigen in the target cell line. To control for the difference in gene transduction efficiency of the different SAR constructs, the experiment was conducted with JNG cells transduced with SAR constructs co-expressing a drug resistance gene (e.g., puromycin or PAC) followed by drug selection to generate a stable population of SAR-expressing cells. It is to be noted that the drug resistance gene (e.g., PAC) in the SAR constructs is optional and in vivo studies were conducted with SAR constructs lacking the PAC gene.

Which “NFAT-GFP ASSAY: L363” value does the source give for B1 here?
Its value is “+ (refer to approximately 5%, 10%, 20%, 30%, 40% and 50% GFP positive cells)”.

For B2, which “NFAT-GFP ASSAY: L363” value is on record?
The value was “L363 (2+) (refer to approximately 5%, 10%, 20%, 30%, 40% and 50% GFP positive cells)”.

B3 was tested. Which “NFAT-GFP ASSAY: L363” value did it give?
Its value is “+/- (refer to approximately 5%, 10%, 20%, 30%, 40% and 50% GFP positive cells)”.

For B4, which “NFAT-GFP ASSAY: L363” value is on record?
Its value is “+/- (refer to approximately 5%, 10%, 20%, 30%, 40% and 50% GFP positive cells)”.

With B5 as the molecule, how does the “NFAT-GFP ASSAY: L363” value read?
Its value is “+ (refer to approximately 5%, 10%, 20%, 30%, 40% and 50% GFP positive cells)”.

Reference: US20230212319A1, “NOVEL ANTIGEN BINDING DOMAINS AND SYNTHETIC ANTIGEN RECEPTORS INCORPORATING THE SAME” (University of Southern California, priority 2020, published 2023)
